# B1: TG-1101 (TG Therapeutics, Inc.) (antibody, human IgG1, kappa)
# heavy: not shown
# light: QIVLSQSPAILSASPGEKVTMTCRASSSVSYMHWYQQKPGSSPKPWIYATSNLASGVPARFSGSGSGTSYSFTISRVEAEDAATYYCQQWTFNPPTFGGGTRLEIKRTVAAPSVFIFPPSDEQLKSGTASVVCLLNNFYPREAKVQWKVDNALQSGNSQESVTEQDSKDSTYSLSSTLTLSKADYEKHKVYACEVTHQGLSSPVTKSFNRGEC
# notes: Chimeric IgG1 made in rat YB2/0 cells, low-fucose N-glycan profile; also called ublituximab; UBX
# Assays:
# [1] = molecular target: FcγIIIA Receptor on the effector cells (UniProt P08637 17-254, limits assumed); test: cell-based or functional assay
# [2] = molecular target: C1q Receptor in the complement system (rabbit serum complement) (rabbit); test: cell-based or functional assay
# FcγRIIIa 158V receptor = molecular target: T1, FcγRIIIa 158V receptor (human, UniProt P08637 17-208, limits assumed); test: SPR, receptor amine-coupled to the chip
# T1 construct: in the Octet assay part of a 'Human Fc receptor panel' loaded on Anti-Penta His biosensors, so probably His-tagged; also called FcγRIIIA V158
# Method: (§1) The method follows a direct binding assay methodology where the FcγRIIIa receptor is directly immobilized onto the flow cell on a sensor chip surface and samples are injected over the chip to assess binding. […] Independent duplicates of sample dilutions are injected over the chip, followed by surface regeneration between each cycle. The binding is measured in response units (RU). The kinetics of the binding reaction is determined by measuring changes in SPR due to the increase in mass in the close proximity to the biosensor chip surface. Change in the mass of the complex as a function of time is visualized as a sensorgram.
# (§2) The equilibrium dissociation constants (K_D) of each sample is determined for each receptor.
# FcγRIIIa 158F receptor = molecular target: T2, FcγRIIIa 158F receptor (human, UniProt P08637 17-208, limits assumed); test: SPR, receptor amine-coupled to the chip
# T2 construct: in the Octet assay part of a 'Human Fc receptor panel' loaded on Anti-Penta His biosensors, so probably His-tagged; also called FcγRIIIA F158
# Method: as §1, §2
# T1 sequence (P08637 17-208 F176V limits assumed): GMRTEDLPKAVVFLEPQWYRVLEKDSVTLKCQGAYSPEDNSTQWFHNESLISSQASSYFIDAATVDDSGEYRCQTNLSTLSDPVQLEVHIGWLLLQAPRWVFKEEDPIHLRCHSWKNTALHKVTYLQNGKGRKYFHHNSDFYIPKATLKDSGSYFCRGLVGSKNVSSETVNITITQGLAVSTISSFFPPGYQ
# T2 sequence (P08637 17-208 limits assumed): as the sequence (P08637 17-208 F176V limits assumed) above, with V160F counted along it
# Sequence of FcγIIIA Receptor on the effector cells (P08637 17-254 limits assumed): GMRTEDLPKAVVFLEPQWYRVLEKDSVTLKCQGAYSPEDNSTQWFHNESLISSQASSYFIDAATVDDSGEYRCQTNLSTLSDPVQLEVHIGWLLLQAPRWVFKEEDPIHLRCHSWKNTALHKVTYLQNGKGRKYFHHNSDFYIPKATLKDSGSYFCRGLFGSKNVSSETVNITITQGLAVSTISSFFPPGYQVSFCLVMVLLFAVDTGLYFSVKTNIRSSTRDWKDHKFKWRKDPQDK
binder,measurement,setting,value
B1,"ADCC EC50, fold lower than OCREVUS ®",[1],~25 fold
same,"CDC EC50 (Jeko-1 cells, rabbit serum)",[2],670 ng/mL
same,fold higher affinity than OCREVUS®,FcγRIIIa 158V receptor,~15 fold
same,fold higher affinity than OCREVUS®,FcγRIIIa 158F receptor,~10 fold
